Test results published in publication PMC5584228.

Columns and labels:
[1] = biological target: Fc hole chain of mutant KiHss (Y349C/T366S/L368A/Y407V) (human); experiment: non-reducing SDS-PAGE of co-expressed chains; scFv-Fc chain (A) and Fc chain (B) co-transfected 1:1 in HEK 293H; secreted Fcs purified by Protein A; disulphide-linked dimers AA, AB and BB told apart by size and quantified by densitometry (ImageLab)
[2] = biological target: Fc hole chain with F405K (Y349C/T366S/L368A/Y407V/F405K), of mutants KiHss-Kh, KiHss-AkKh and KiHss-KkKh (human); experiment: as above

heterodimeric Fc (AB), percent of total Fcs [1] | heterodimeric Fc (AB), percent of total Fcs [2] | Substance
73% | > 80% | scFv-Fc knob chain of mutant KiHss (S354C/T366W) (Fc fusion)
 | 94% | scFv-Fc knob chain of mutant KiHss-AkKh (S354C/T366W/K409A) (Fc fusion)
> 80% |  | scFv-Fc knob chain with F405K (S354C/T366W/F405K), of mutants KiHss-Kk and KiHss-KkKh (Fc fusion)
